B1: NF-kappa-B inhibitor delta (Homo sapiens), Q8NI38 (parent)
chain: MEAGPWRVSAPPSGPPQFPAVVPGPSLEVARAHMLALGPQQLLAQDEEGDTLLHLFAARGLRWAAYAAAEVLQVYRRLDIREHKGKTPLLVAAAANQPLIVEDLLNLGAEPNAADHQGRSVLHVAATYGLPGVLLAVLNSGVQVDLEARDFEGLTPLHTAILALNVAMRPSDLCPRVLSTQARDRLDCVHMLLQMGANHTSQEIKSNKTVLHLAVQAANPTLVQLLLELPRGDLRTFVNMKAHGNTALHMAAALPPGPAQEAIVRHLLAAGADPTLRNLENEQPVHLLRPGPGPEGLRQLLKRSRVAPPGLSS
partner: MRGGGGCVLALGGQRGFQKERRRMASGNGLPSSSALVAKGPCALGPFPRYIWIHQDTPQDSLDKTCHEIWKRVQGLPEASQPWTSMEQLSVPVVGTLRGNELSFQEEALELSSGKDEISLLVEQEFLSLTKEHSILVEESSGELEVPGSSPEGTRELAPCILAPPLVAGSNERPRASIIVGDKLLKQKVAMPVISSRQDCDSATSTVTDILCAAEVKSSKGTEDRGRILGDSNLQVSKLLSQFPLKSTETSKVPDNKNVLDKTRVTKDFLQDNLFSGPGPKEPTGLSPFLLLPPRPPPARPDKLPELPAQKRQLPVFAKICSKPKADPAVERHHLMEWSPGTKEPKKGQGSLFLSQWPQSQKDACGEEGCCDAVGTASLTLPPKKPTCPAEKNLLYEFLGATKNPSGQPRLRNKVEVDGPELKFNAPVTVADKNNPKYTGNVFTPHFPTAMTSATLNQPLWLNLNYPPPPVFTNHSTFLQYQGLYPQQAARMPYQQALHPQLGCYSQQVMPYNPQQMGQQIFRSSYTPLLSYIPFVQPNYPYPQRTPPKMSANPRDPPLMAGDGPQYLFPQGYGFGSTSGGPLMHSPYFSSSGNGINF
B2: Protein-lysine methyltransferase METTL21C (Homo sapiens), Q5VZV1 (parent)
chain: MDVCLSSAQQPGRRGEGLSSPGGWLEAEKKGAPQKDSTGGVLEESNKIEPSLHSLQKFVPTDYASYTQEHYRFAGKEIVIQESIESYGAVVWPGAMALCQYLEEHAEELNFQDAKILEIGAGPGLVSIVASILGAQVTATDLPDVLGNLQYNLLKNTLQCTAHLPEVKELVWGEDLDKNFPKSAFYYDYVLASDVVYHHYFLDKLLTTMVYLSQPGTVLLWANKFRFSTDYEFLDKFKQVFDTTLLAEYPESSVKLFKGILKWD
B3: Microtubule-associated tumor suppressor candidate 2 (Homo sapiens), Q5JR59-3 (parent)
chain: MGHCCCKPYNCLQCLDKTNESALVKEKELSIELANIRDEVAFHTAKCEKLQKEKEELERRFEDEVKRLGWQQQAELQELEERLQLQFEAEMARLQEEHGDQLLSIRCQHQEQVEDLTASHDAALLEMENNHTVAITILQDDHDHKVQELMSTHELEKKELEENFEKLRLSLQDQVDTLTFQSQSLRDRARRFEEALRKNTEEQLEIALAPYQHLEEDMKSLKQVLEMKNQQIHEQEKKILELEKLAEKNIILEEKIQVLQQQNEDLKARIDQNTVVTRQLSEENANLQEYVEKETQEKKRLSRTNEELLWKLQTGDPTSPIKLSPTSPVYRGSSSGPSSPARVSTTPR
partner: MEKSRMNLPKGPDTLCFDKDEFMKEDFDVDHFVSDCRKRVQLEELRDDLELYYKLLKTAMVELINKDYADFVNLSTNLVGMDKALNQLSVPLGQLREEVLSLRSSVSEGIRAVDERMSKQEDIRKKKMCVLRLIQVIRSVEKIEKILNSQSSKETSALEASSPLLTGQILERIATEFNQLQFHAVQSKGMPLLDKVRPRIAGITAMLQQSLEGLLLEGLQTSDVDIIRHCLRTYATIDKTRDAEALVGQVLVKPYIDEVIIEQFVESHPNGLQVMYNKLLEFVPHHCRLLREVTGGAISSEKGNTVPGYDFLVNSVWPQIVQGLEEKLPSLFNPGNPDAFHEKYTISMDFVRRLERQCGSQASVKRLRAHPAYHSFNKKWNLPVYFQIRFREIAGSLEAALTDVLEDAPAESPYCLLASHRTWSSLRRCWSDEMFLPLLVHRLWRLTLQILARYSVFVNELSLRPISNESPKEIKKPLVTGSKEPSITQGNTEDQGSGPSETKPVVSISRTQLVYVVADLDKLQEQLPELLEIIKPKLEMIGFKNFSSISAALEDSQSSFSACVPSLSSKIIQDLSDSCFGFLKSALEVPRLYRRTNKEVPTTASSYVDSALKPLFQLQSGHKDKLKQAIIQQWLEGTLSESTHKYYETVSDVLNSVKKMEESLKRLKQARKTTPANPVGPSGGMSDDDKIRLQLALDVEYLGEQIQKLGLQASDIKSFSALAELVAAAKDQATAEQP
B4: Cysteine-rich secretory protein 2 (Homo sapiens), P16562 (parent)
chain: MALLPVLFLVTVLLPSLPAEGKDPAFTALLTTQLQVQREIVNKHNELRKAVSPPASNMLKMEWSREVTTNAQRWANKCTLQHSDPEDRKTSTRCGENLYMSSDPTSWSSAIQSWYDEILDFVYGVGPKSPNAVVGHYTQLVWYSTYQVGCGIAYCPNQDSLKYYYVCQYCPAGNNMNRKNTPYQQGTPCAGCPDDCDKGLCTNSCQYQDLLSNCDSLKNTAGCEHELLKEKCKATCLCENKIY
partner: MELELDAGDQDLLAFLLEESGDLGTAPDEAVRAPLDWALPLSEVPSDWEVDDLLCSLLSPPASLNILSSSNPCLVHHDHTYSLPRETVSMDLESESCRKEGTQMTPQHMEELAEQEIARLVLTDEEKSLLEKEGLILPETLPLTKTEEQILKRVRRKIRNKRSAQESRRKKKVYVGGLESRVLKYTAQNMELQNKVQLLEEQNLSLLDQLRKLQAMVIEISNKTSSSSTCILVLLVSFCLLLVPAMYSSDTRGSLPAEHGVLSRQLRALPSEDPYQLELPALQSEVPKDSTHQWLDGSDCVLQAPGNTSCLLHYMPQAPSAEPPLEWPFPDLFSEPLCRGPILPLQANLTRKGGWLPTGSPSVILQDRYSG
B5: Transcription factor 12 (Homo sapiens), Q99081 (parent)
chain: MNPQQQRMAAIGTDKELSDLLDFSAMFSPPVNSGKTRPTTLGSSQFSGSGIDERGGTTSWGTSGQPSPSYDSSRGFTDSPHYSDHLNDSRLGAHEGLSPTPFMNSNLMGKTSERGSFSLYSRDTGLPGCQSSLLRQDLGLGSPAQLSSSGKPGTAYYSFSATSSRRRPLHDSAALDPLQAKKVRKVPPGLPSSVYAPSPNSDDFNRESPSYPSPKPPTSMFASTFFMQDGTHNSSDLWSSSNGMSQPGFGGILGTSTSHMSQSSSYGNLHSHDRLSYPPHSVSPTDINTSLPPMSSFHRGSTSSSPYVAASHTPPINGSDSILGTRGNAAGSSQTGDALGKALASIYSPDHTSSSFPSNPSTPVGSPSPLTGTSQWPRPGGQAPSSPSYENSLHSLQSRMEDRLDRLDDAIHVLRNHAVGPSTSLPAGHSDIHSLLGPSHNAPIGSLNSNYGGSSLVASSRSASMVGTHREDSVSLNGNHSVLSSTVTTSSTDLNHKTQENYRGGLQSQSGTVVTTEIKTENKEKDENLHEPPSSDDMKSDDESSQKDIKVSSRGRTSSTNEDEDLNPEQKIEREKERRMANNARERLRVRDINEAFKELGRMCQLHLKSEKPQTKLLILHQAVAVILSLEQQVRERNLNPKAACLKRREEEKVSAVSAEPPTTLPGTHPGLSETTNPMGHM
partner: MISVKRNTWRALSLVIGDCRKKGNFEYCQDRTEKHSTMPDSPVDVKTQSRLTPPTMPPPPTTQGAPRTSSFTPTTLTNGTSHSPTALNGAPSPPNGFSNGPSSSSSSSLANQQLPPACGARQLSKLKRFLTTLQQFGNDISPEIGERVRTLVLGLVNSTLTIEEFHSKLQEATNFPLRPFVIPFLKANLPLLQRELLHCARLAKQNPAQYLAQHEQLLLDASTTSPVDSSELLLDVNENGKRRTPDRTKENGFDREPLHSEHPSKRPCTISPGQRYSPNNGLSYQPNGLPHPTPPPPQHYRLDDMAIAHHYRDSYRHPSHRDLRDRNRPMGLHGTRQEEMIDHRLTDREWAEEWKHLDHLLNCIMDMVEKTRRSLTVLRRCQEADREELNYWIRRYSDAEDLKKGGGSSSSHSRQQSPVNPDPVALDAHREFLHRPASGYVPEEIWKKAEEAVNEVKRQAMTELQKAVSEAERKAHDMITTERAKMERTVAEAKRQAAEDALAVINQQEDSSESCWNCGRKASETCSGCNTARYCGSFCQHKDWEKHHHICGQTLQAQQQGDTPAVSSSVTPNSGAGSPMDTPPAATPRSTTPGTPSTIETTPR

Consider eleven variants from IntAct's records for PubMed 31515488.

One test covers variants of B1. The note with it: with ca094_human C1orf94, Q6P1W5.
Regarding V29A, the “effect of a mutation on the interaction” value is reported as “with no effect”.

The next test covers variants of B2. The conditions noted are these: with eloc_human ELOC.
As to G15R, the “effect of a mutation on the interaction” value is reported as “with no effect”.

Variants of B3 are the subject of the next test. The note with it: with cog2_human COG2, Q14746.
Take A89V: the “effect of a mutation on the interaction” value is recorded as “with no effect”.

Another test covers variants of B4. The note with it: with creb3_human CREB3, O43889.
With C196R, the “effect of a mutation on the interaction” value is given as “with no effect”.

Variants of B5 are the subject of a further test. The note with it: with mtg8_human RUNX1T1, Q06455.
With G64R, the “effect of a mutation on the interaction” value is listed as “with no effect”.

In the case of L483R, the “effect of a mutation on the interaction” value is listed as “with no effect”.

On to I11M, for which the “effect of a mutation on the interaction” value is “with no effect”.

As for A458V, the “effect of a mutation on the interaction” value is “with no effect”.

With D565V, the “effect of a mutation on the interaction” value is “with no effect”.

Turning to N479S, the “effect of a mutation on the interaction” value is on record as “with no effect”.

A174V: the “effect of a mutation on the interaction” value is recorded as “with no effect”.
